The record followed here is patent US20140037642A1 (Amgen, published 2014).

Experiment [1] deals with T1, hu IGF-1R(ECD)-C3-muIgG1Fc (human; mouse, Glycosylated. 60% of the preparation was cleaved between the alpha and beta chains (RKRR, mature positions 708-711), which stay disulfide-linked; 40% was unprocessed. Dimer through the …).
T1 construct: 60% of the product was processed into α and β chains, 40% unprocessed; also called IGF-1R(ECD)-C3-muFc; IGF-1R-C3-muFc
The experiment is described as follows: phage Fab ELISA, plate coated with IGF-1R-C3-mFc at 5 µg/ml. As for the experimental part:
(§1) In 96-well 2-ml deep-well blocks, 480 μl/well 2xYT-CG broth was inoculated with 20 μl of overnight cultures of the individual clones, then incubated at 37° C., 300 rpm for 3 hours. To each well, 50 μl of 1:3 diluted M13KO7 helper phage were added to infect the cells. The block was incubated at 37° C. without shaking for 30 minutes, and then shaken gently for another 30 minutes at 150 rpm. The block was centrifuged at 3600 rpm for 20 minutes to pellet the infected cells. The cell pellet in each well was suspended into 480 μl of 2xYT-CK (2xYT broth containing 100 μg/ml carbenicillin and 40 μg/ml kanamycin), and incubated at 30° C. overnight for about 20 hours. The cell debris was separated by centrifugation at 3600 rpm for 20 minutes. The rescued phage supernatant was used in the phage ELISA to check for IGF-1R-specific, INSR-cross reactive, or mouse Fc binding of individual clones.
(§2) The coated plates were washed 3× with 300 μl/well of PBS. The washed plates were blocked with 300 μl/well 2% MPBS at room temperature for one hour. Meanwhile, rescued phages of individual clones were pre-blocked by mixing 170 μl of rescued phage with 170 μl of 4% MPBS. The blocked plates were washed 5× with 300 μl/well TBST (TBS: 10 mM Tris-HCl, pH 7.5, 1 mM EDTA, 150 mM NaCl; Tween-20. 0.1%). 100 μl/well of pre-blocked phage dilutions were distributed to each set of coated plate, which were incubated at room temperature on a rocker for 90 minutes. The plates were washed 5× with 300 μl/well TBST. 100 μl/well of anti-M13-HRP in 2% MPBS (1:3000 dilution, catalog number 27-9421-01, Amersham Pharmacia Biotech) were distributed, and plates were incubated at room temperature on rocker for one hour. The plates were washed 5× with 300 μl/well TBST. 100 μl/well of the substrate 1-Step™ ABTS (Pierce Biotechnology, Rockford, Ill., catalog number 37615) were added. Plates were incubated for one hour. OD₄₀₅ was measured for signal detection.
(In general: ELISA stands for enzyme-linked immunosorbent assay.)

A further experiment deals with T2, hu INSR(ECD)-muIgG1Fc (human; mouse, Glycosylated. 87% of the preparation was cleaved between the alpha and beta chains (RKRR site), which stay disulfide-linked. Dimer through the receptor and the murine Fc.).
T2 construct: 87% processed into α and β chains; also called INSR(ECD)-muFc; INSR-mFc
Briefly: phage Fab ELISA, plate coated with INSR-mFc at 5 µg/ml. As for the experimental part: as §1, §2

B1: L8H8 phage-displayed Fab (Fab, V domains shown)
VH: QVQLQQWGPGLVKPSGTLSLTCAVSGGSISSSNWWSWVRQPPGKGLEWIGEIYHSGSTNYNPSLESRVTISVDKSKNQFSLKLSSVTAADTAVYYCARDRYYGMDVWGQGTTVTVSS
VL: not shown
On to B1, for which the binding result in experiment [1] is listed as “binds”; with hu INSR(ECD)-muIgG1Fc it was “no binding”.

B2: L49H49 phage-displayed Fab (Fab, V domains shown)
VH: QVQLQQWGAGLLKPSETLSLTCAVYGGSFSGYYWSWIRQPPGKGLEWIGEINHSGSTNYNPSLKSRVTISVDTSKNQFSLKLSSVTAADTAVYYCARVGYSHGEEVLDVWGKGTTVTVSS
VL: NFMLTQPHSVSESPGKTVSISCTRNSGSIASNFVQWYQQRPGSAPTIVIYEDNQRPSAVPTRFSGSIDRSSNSASLTISGLTTEDEADYYCQSYDSANVIFGGGTKLTVL
Turning to B2, the binding result in experiment [1] is listed as “binds”; with hu INSR(ECD)-muIgG1Fc, “no binding”.

B3: L16H16 phage-displayed Fab (Fab, V domains shown)
VH: QVQLQESGPGLVKPSGTLSLTCAVSGGSISSSNWWSWVRQPPGKGLEWIGEIYHSGSTNYNPSLKSRVTISVDKSKNQFSLKLSSVTAADTAVYYCARWTGRTDAFDIWGQGTMVTVSS
VL: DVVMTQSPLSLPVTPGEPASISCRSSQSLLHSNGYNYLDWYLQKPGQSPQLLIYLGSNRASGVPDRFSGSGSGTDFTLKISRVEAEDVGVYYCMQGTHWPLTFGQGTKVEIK
Turning to B3, the values for the binding result (in experiment [1]; in the experiment with hu INSR(ECD)-muIgG1Fc) were “binds” and “no binding”, respectively.

B4: L52H52 phage-displayed Fab (Fab, V domains shown)
VH: EVQLVESGPGLVKPSGTLSLTCAVSGGSISSSNWWSWVRQPPGKGLEWIGEIYHSGSTNYNPSLKSRVTISVDKSKNQFSLKLSSVTAADTAVYYCAREKSGMDVWGQGTTVTVSS
VL: EIVMTQSPLSLPVTPGEPASISCRSSQSLLHTNGYDYLDWYLQKPGQSPQLLIYLGSTRASGVPDRFSGSGSGTDFTLKISRVEAEDVGVYYCMQAFQTPLTFGGGTKMEIK
As to B4, the binding result in experiment [1] is recorded as “binds”; with hu INSR(ECD)-muIgG1Fc, “no binding”.

B5: L26H26 phage-displayed Fab (Fab, V domains shown)
VH: QVQLQESGPGLVKPSGTLSLTCAVSGGSISSSNWWSWVRQPPGKGLEWIGEIYHSGSTNYNPSLKSRVTISVDKSKNQFSLKLSSVTAADTAVYYCARYSYGTVGIDYWGQGTLVTVSS
VL: DVVMTQSPLSLPVTPGEPASISCRSSQSLLHSNGYTYLDWYLQKPGQSPQLLIYLGSNRASGVPDRFSGSGSGTDFTLKISRVEPEDVGVYYCMQALEMPLTFGGGTKVEIK
As to B5, the binding result in experiment [1] was “binds”; in the experiment with hu INSR(ECD)-muIgG1Fc, “no binding”.

B6: L9H9 phage-displayed Fab (Fab, V domains shown)
VH: EVQLVESGPGLVKPSGTLSLTCAVSGGSISSSNWWSWVRQPPGKGLEWIGYIYYSGSTYYNPSLKSRVTMSVDTSKNQFSLKLSSVTAADTAVYYCARWSYLDAFDIWGQGTMVTVSS
VL: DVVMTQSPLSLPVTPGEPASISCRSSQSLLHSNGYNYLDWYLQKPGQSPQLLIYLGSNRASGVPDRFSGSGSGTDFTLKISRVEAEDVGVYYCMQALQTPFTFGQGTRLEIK
B6: the binding result is reported as “binds” in experiment [1] and “no binding” with hu INSR(ECD)-muIgG1Fc.

B7: L11H11 phage-displayed Fab (Fab, V domains shown)
VH: QLQLQESGPGLVKPSGTLSLTCAVSGGSISSSNWWSWVRQPPGKGLEWIGEIYHSGSTNYNPSLKSRVTISVDKSKNQSSLKLSSVTAADTAVYYCARANRDDAFDIWGQGTMVTVSS
VL: EIVLTQSPLSLPVTPGEPASISCRSSQSLLHSNGYNYLNWYLQKPGQSPQLLIYLGSNRASGVPDRFSASGSGTDFTLKISRVEAEDVGVYYCMQALQTPITFGQGTRLEIK
For B7, the binding result in experiment [1] is given as “binds”; with hu INSR(ECD)-muIgG1Fc, “no binding”.

B8: L50H50 phage-displayed Fab (Fab, V domains shown)
VH: QVQLQESGPGLVKPSETLSLTCTVSGGSIGNYDWSWIRQPPGKGLEWIGTIYSSGSTYYSPSLKSRLTISVDKSKNRFSLKLSSVTAADTAVYYCARARGYSSPFDPWGQGTLVTVSS
VL: ETTLTQSPGTLSLSPGERATLSCRASQTISSSHLAWYQQKPGQSPRLLIYGAGYRATGIPDRFSGSGSGTDFTLTISRLEPEDFAVYYCQHYGSSLRTFGQGTKVEIK
With B8, the binding result is on record as “binds” in experiment [1] and “no binding” in the experiment with hu INSR(ECD)-muIgG1Fc.

B9: L4H4 phage-displayed Fab (Fab, V domains shown)
VH: QVQLQQWGAGLLKPSETLSLTCAVSGGSFSGYYWSWIRQPPGKGLEWIGEINHSGSTNYNRSLKSRVTISVDTSKNQFSLKLSSVTAADTAVYYCARLSYGSGVDYWGQGTLVTVSS
VL: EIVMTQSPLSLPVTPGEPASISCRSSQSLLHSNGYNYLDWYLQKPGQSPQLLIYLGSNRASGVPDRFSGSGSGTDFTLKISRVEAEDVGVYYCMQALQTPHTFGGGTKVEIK
Regarding B9, the binding result is recorded as “binds” in experiment [1] and “no binding” with hu INSR(ECD)-muIgG1Fc.

B10: L51H51 phage-displayed Fab (Fab, V domains shown)
VH: QVQLVQSGAEVKKPGSSVKVSCKASGGTFSSYAISWVRQAPGQGLEWMGIINPSGGSTSYAQKFQGRVTITRDTSASTAYMELSSLRSEDTAVYYCARDRWRYDAFDIWGQGTMVTVSS
VL: NFMLTQPHSVSESPGKTVTISCTGSGGNIASNYVQWYQQRPGRAPTTVIYEDNRRPSGVPDRFSGSIDSSSNSASLTISGLKTEDEADYYCQSYDPYNRVFGGGTKLTVL
For B10, the binding result in experiment [1] is recorded as “binds”; with hu INSR(ECD)-muIgG1Fc it was “no binding”.

B11: L13H13 phage-displayed Fab (Fab, V domains shown)
VH: QVQLQESGPGLVKPSETLSLTCTVSGGSISSSNWWSWVRQPPGKGLEWIGEIYHSGSTNYNPSLKSRVTISVDKSKNQFSLKLSSVTAADTAVYYCAREGNRTVTSAFDIWGQGTMVTVSS
VL: not shown
With B11, the binding result in experiment [1] is given as “binds”; with hu INSR(ECD)-muIgG1Fc, “no binding”.

B12: L12H12 phage-displayed Fab (Fab, V domains shown)
VH: EVQLVESGGGLVQPGGSLRLSCAASGFTFSSYAMSWVRQAPGKGLEWVSAISGSGGSTYYADSVKGRFTISRDNSKNTLYLQMNSLSADDTAVYFCASGGWYGDYFDYWGQGTLVTVSS
VL: NFMLTQPHSVSESPGKTVTISCTRSSGSIASNYVQWYQQRPGSSPTTVIYEDNQRPSGVPDRFSGSIDSSSNSASLTISGLKTEDEADYYCQSYDSSNQRVFGGGTKLTVL
With B12, the results for the binding result (in experiment [1]; with hu INSR(ECD)-muIgG1Fc) were “binds” and “no binding”, respectively.

B13: L5H5 phage-displayed Fab (Fab, V domains shown)
VH: QLQLQESGPGLVKPSQTLSLTCTVSGGSISSSNWWSWVRQPPGKGLEWIGEIYHSGSTNYNPSLKSRVTISVDKSKNQFSLKLSSVTAADTAVYYCARYSSSRNDAFDIWGQGTMVTVSS
VL: not shown
Turning to B13, the binding result in experiment [1] is given as “binds”; with hu INSR(ECD)-muIgG1Fc, “no binding”.
